Patent US10914725B2, “Culture medium additive, culture medium composition, and method for culturing cells or tissue using same” (NISSAN CHEMICAL INDUSTRIES, LTD., priority 2015, dated 2021)

B1: hHB-EGF: human heparin bindability epithelial cell growth factor (PeproTech) (protein, UniProt Q99075 63-148, looked up)
Heparin-binding EGF-like …: DLQEADLDLLRVTLSSKPQALATPNKEEHGKRKKKGKGLGKKRDPCLRKYKDFCIHGECKYVKELRAPSCICHPGYHGERCHGLSL
B2: hEGF: human epithelial cell growth factor (PeproTech) (protein, UniProt P01133 23-1207, looked up)
Pro-epidermal growth factor: PQHWSCPEGTLAGNGNSTCVGPAPFLIFSHGNSIFRIDTEGTNYEQLVVDAGVSVIMDFHYNEKRIYWVDLERQLLQRVFLNGSRQERVCNIEKNVSGMAINWINEEVIWSNQQEGIITVTDMKGNNSHILLSALKYPANVAVDPVERFIFWSSEVAGSLYRADLDGVGVKALLETSEKITAVSLDVLDKRLFWIQYNREGSNSLICSCDYDGGSVHISKHPTQHNLFAMSLFGDRIFYSTWKMKTIWIANKHTGKDMVRINLHSSFVPLGELKVVHPLAQPKAEDDTWEPEQKLCKLRKGNCSSTVCGQDLQSHLCMCAEGYALSRDRKYCEDVNECAFWNHGCTLGCKNTPGSYYCTCPVGFVLLPDGKRCHQLVSCPRNVSECSHDCVLTSEGPLCFCPEGSVLERDGKTCSGCSSPDNGGCSQLCVPLSPVSWECDCFPGYDLQLDEKSCAASGPQPFLLFANSQDIRHMHFDGTDYGTLLSQQMGMVYALDHDPVENKIYFAHTALKWIERANMDGSQRERLIEEGVDVPEGLAVDWIGRRFYWTDRGKSLIGRSDLNGKRSKIITKENISQPRGIAVHPMAKRLFWTDTGINPRIESSSLQGLGRLVIASSDLIWPSGITIDFLTDKLYWCDAKQSVIEMANLDGSKRRRLTQNDVGHPFAVAVFEDYVWFSDWAMPSVMRVNKRTGKDRVRLQGSMLKPSSLVVVHPLAKPGADPCLYQNGGCEHICKKRLGTAWCSCREGFMKASDGKTCLALDGHQLLAGGEVDLKNQVTPLDILSKTRVSEDNITESQHMLVAEIMVSDQDDCAPVGCSMYARCISEGEDATCQCLKGFAGDGKLCSDIDECEMGVPVCPPASSKCINTEGGYVCRCSEGYQGDGIHCLDIDECQLGEHSCGENASCTNTEGGYTCMCAGRLSEPGLICPDSTPPPHLREDDHHYSVRNSDSECPLSHDGYCLHDGVCMYIEALDKYACNCVVGYIGERCQYRDLKWWELRHAGHGQQQKVIVVAVCVVVLVMLLLLSLWGAHYYRTQKLLSKNPKNPYEESSRDVRSRRPADTEDGMSSCPQPWFVVIKEHQDLKNGGQPVAGEDGQAADGSMQPTSWRQEPQLCGMGTEQGCWIPVSSDKGSCPQVMERSFHMPSYGTQTLEGGVEKPHSLLSANPLWQQRALDPPHQMELTQ
modifications: Pro-epidermal growth factor

System: human ovarian cancer cell line SKOV3
Test: Cell proliferation test by dispersing SKOV3 cells with growth factors (Experimental Example 4)
Assay type: cell-based
Settings: 10 days
Description: By a method similar to the preparation method of medium composition in Analysis Example 1, a medium composition containing 10 (v/v) % FBS, and 0.03 (w/v) % of low-molecular agar in DMEM (manufactured by Wako Pure Chemical Industries, Ltd.) was prepared.
Then, human ovarian cancer cell line SKOV3 (manufactured by DS PHARMA BIOMEDICAL CO., LTD.) was suspended in the above-mentioned medium composition containing low-molecular agar at 37,000 cells/mL, and dispensed to the wells of a 96 well flat plane ultra-low attachment surface microplate (manufactured by Corning Incorporated, #3474) at 135 μL per 1 well. The plate was stood in a CO2 incubator (37° C., 5% CO2), and a growth factor was added the next day. A similar operation was performed with 10 (v/v) % FBS-containing DMEM free of low-molecular agar. As a growth factor, human heparin bindability epithelial cell growth factor (hHB-EGF) (manufactured by PeproTech, Inc.) at a final concentration of 30 ng/mL or 100 ng/mL, human epithelial cell growth factor (hEGF) (manufactured by PeproTech, Inc.) and human transforming growth factor α (hTGFα) (manufactured by PeproTech, Inc.) each at a final concentration of 1 ng/mL, 3 ng/mL or 10 ng/mL were added by 15 μL per 1 well.
Successively, the plate was cultured in a standing state in a CO2 incubator (37° C., 5% CO2) for 10 days. As a negative control, DMEM in an amount equal to that of a growth factor was added. CellTiter-Glo Luminescent Cell Viability Assay (manufactured by Promega) (100 μL) was added to the cell culture medium after culturing for 10 days, stood for 10 min at room temperature, and the amount of luminescence was measured by a microplate reader (“FlexStation 3”, manufactured by Molecular Devices) and according to the protocol recommended by Promega. The amount of luminescence of the medium composition alone was subtracted, whereby the number of viable cells was measured.
The relative cell number when the amount of luminescence of the negative control is 1 was determined from the amount of luminescence (corresponding to the number of SKOV3 cells) after culturing for 10 days after the addition of the growth factor, and shown in Table 11.

Molecule | relative cell number (negative control = 1) (growth factor 30 ng/mL, low-molecular agar 0 (w/v)%) | relative cell number (negative control = 1) (growth factor 30 ng/mL, low-molecular agar 0.03 (w/v)%) | relative cell number (negative control = 1) (growth factor 100 ng/mL, low-molecular agar 0 (w/v)%) | relative cell number (negative control = 1) (growth factor 100 ng/mL, low-molecular agar 0.03 (w/v)%) | relative cell number (negative control = 1) (growth factor 1 ng/mL, low-molecular agar 0 (w/v)%) | relative cell number (negative control = 1) (growth factor 1 ng/mL, low-molecular agar 0.03 (w/v)%) | relative cell number (negative control = 1) (growth factor 3 ng/mL, low-molecular agar 0 (w/v)%) | relative cell number (negative control = 1) (growth factor 3 ng/mL, low-molecular agar 0.03 (w/v)%) | relative cell number (negative control = 1) (growth factor 10 ng/mL, low-molecular agar 0 (w/v)%) | relative cell number (negative control = 1) (growth factor 10 ng/mL, low-molecular agar 0.03 (w/v)%)
B1 | 1.358 | 1.774 | 1.451 | 1.748 |  |  |  |  |  | 
B2 |  |  |  |  | 1.380 | 1.413 | 1.392 | 1.745 | 1.678 | 1.984
